“And” between values parts separate entries of the source, which are not always exact repeats. Equal values may be shown once.
Target: T1, recombinant influenza A virus nucleoprotein (A/WSN/1933) (influenza A virus (A/WSN/1933)), P15682
T1 chain: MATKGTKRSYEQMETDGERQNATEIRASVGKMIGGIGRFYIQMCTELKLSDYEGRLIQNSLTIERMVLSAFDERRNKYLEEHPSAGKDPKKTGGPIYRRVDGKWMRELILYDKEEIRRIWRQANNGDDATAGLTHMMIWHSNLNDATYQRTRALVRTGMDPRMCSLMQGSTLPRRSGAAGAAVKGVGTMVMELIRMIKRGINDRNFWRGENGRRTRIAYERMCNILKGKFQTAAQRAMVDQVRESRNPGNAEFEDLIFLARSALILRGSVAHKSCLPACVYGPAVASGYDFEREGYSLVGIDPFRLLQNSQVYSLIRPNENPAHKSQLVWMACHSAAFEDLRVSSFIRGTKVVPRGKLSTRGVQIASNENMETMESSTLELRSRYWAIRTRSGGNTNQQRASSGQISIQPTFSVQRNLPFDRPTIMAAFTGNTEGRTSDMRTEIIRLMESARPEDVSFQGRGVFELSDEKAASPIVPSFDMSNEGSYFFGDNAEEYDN
Assay: negative staining EM; freshly assembled RNP-like mixture (NP with 12-nt RNA) diluted to 0.05 mg/ml, 2% sodium silicotungstate pH 7.0
Conditions: remark: other sources report otherwise

B1: recombinant influenza A virus nucleoprotein (A/WSN/1933), P15682 (natural protein)
chain: MATKGTKRSYEQMETDGERQNATEIRASVGKMIGGIGRFYIQMCTELKLSDYEGRLIQNSLTIERMVLSAFDERRNKYLEEHPSAGKDPKKTGGPIYRRVDGKWMRELILYDKEEIRRIWRQANNGDDATAGLTHMMIWHSNLNDATYQRTRALVRTGMDPRMCSLMQGSTLPRRSGAAGAAVKGVGTMVMELIRMIKRGINDRNFWRGENGRRTRIAYERMCNILKGKFQTAAQRAMVDQVRESRNPGNAEFEDLIFLARSALILRGSVAHKSCLPACVYGPAVASGYDFEREGYSLVGIDPFRLLQNSQVYSLIRPNENPAHKSQLVWMACHSAAFEDLRVSSFIRGTKVVPRGKLSTRGVQIASNENMETMESSTLELRSRYWAIRTRSGGNTNQQRASSGQISIQPTFSVQRNLPFDRPTIMAAFTGNTEGRTSDMRTEIIRLMESARPEDVSFQGRGVFELSDEKAASPIVPSFDMSNEGSYFFGDNAEEYDN
stoichiometry N: 3 and 4

Source: publication PMC10848707
